Data on 4 substances can be found in paper PMC4948710.

In test [1] the target is Nematostella vectensis β-catenin, full length (Nematostella vectensis). Put plainly: ITC. For orientation: Isothermal titration calorimetry measures the heat released or taken up as one component is titrated into another.
The target in test [2] is F-actin polymerised from chicken muscle G-actin (chicken) (UniProt P68139). The experiment in a line: co-sedimentation.

For orientation: Kd means the concentration at which binding is half-saturated. The low end stands for tighter binding, the high end for weaker binding. In test [1], “Nematostella vectensis Cadherin-1 cytoplasmic region (domain or fragment)” returned a Kd of 7.9 nM.

Regarding “Nematostella vectensis α-catenin lacking the insert (residues 638-1,021 deleted) (domain or fragment)”, in test [2], the dissociation constant (Kd) was greater than 12000 nM.

For “Nematostella vectensis α-catenin, full length (natural protein)”, the Kd in test [2] worked out at 800 nM.

“Nematostella vectensis Cadherin-2 cytoplasmic region (domain or fragment)”: the dissociation constant (Kd) in test [1] turned out to be 1.3 nM.
